Experimental data reported in the nanobody polyreactivity screen of Harvey et al. (2022).

Experiment: yeast display, Sf9 membrane polyspecificity reagent, FACS + sequencing; frameworks hold sequencing errors
Summary of the method: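 Galactose-induced (36–48 hours) yeast carrying a synthetic nanobody display library were exposed to 10% biotinylated, detergent-solubilized Sf9 membrane reagent at 4 °C for 1 hour. FACS followed streptavidin microbead enrichment, using low and high (top ~1%) gates for expression (anti-HA) and reagent binding (streptavidin). Colony PCR, MiSeq 2 × 250 sequencing and CDR-length filtering followed. Labels for polyreactivity reflect the gate of origin.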

Question: For “QVQLVESGGGLVQAGGSLRLICAASGSTIAVYAIGWYRQAPGKERELVASISFSVVSTSYADSVKGRFTISRDNAKNTVYLQMNSLKPEDTAVYYCSTYYVRASYRYDYWGQGTQVTVSS”, which “polyreactivity (PSR sort gate)” value is on record?
Answer: high polyreactivity

Question: With “QVQLVESGGGLVQAGGSLRLICAASGSTLTSNSMGWYRQAPGKERELVASISRRGDSTNYADSVKGRFTISRDNAKNTVYLQMNSLKPEDTAVYYCVAYGYFQSNLWSEFDYWGQGTQVTVSS” as the sequence, how does the “polyreactivity (PSR sort gate)” value read?
Answer: low polyreactivity

Question: For “QVQLVESGGGLVQAGGSLRLICAASGSTYDRNVLGWYRQEPGKERELVAAISRVSSTNYADSVKGRFTISRDNAKNTVYLQMNSLKPEDTAVYYCAADRAGSIMNYWGQGTQVTVSS”, which “polyreactivity (PSR sort gate)” value is on record?
Answer: low polyreactivity

Question: With “QVQLVESGGGLVQAGGSLRLICAASGTTFGRNAMGWYRQAPGKERELVDAIDSGASTYYADSVKGRFTISRDNAKNTVYLQMNSLKPEDTAVYYCGADVVYDYGGMDYWGQGTQVTVSS” as the sequence, how does the “polyreactivity (PSR sort gate)” value read?
Answer: low polyreactivity

Question: For “QVQLVESGGGLVQAGGSLRLICAASGYIFPYYAIGWYRQAPGKERELVAGITTDGSSTYYADSVKGRFTISRDNAKNTVYLQMPSLKPEDTAVYYCYGYPGYTWGWYDYWGQGTQVTVSS”, which “polyreactivity (PSR sort gate)” value is on record?
Answer: low polyreactivity

Question: Which “polyreactivity (PSR sort gate)” value does the source give for “QVQLVESGGGLVQAGGSLRLICAASGYTFGGYAMGWYRQAPGKERVLVAAISTDGDSTFYADSVKGRFTISRDNAKNTVYLQMNSLKPEDTAVYYCAASVNTGSVTEYDYWGQGTQVTVSS” here?
Answer: low polyreactivity

Question: Which “polyreactivity (PSR sort gate)” value does the source give for “QVQLVESGGGLVQAGGSLRLICAASVSTFVRNAMGLYRQAPGKERELVAAISRSGGRTYYADSVKGRFTISRDNAKNTVYLQMNSLKPEDTSVYYCAADGKSVYDYWGQGTQVTVSS” here?
Answer: high polyreactivity

Question: With “QVQLVESGGGLVQAGGSLRLICAGSGLTFPYYTMGWYRQAPGEERELVAAISRRGGSTYYADSVKGRFTISRDNAKNTVYLQMNSLKPEDTAVYYCAADKYSWYDYWGQGTQVTVSS” as the sequence, how does the “polyreactivity (PSR sort gate)” value read?
Answer: low polyreactivity

Question: Which “polyreactivity (PSR sort gate)” value does the source give for “QVQLVESGGGLVQAGGSLRLICASSGCTFGDYAMGWYRQEPGKERELVAAITIGGITTYADSVKGRFTISRDTAKYTVYLQRNSLKPEDTAVYYCAAAERGHWDDYWGQGTQVTVSS” here?
Answer: low polyreactivity

Question: Which “polyreactivity (PSR sort gate)” value does the source give for “QVQLVESGGGLVQAGGSLRLICAVSGHIFGSNAMGWYRQAPGKERELVAAIRSSGGSTYYADSVKGRFTISRDYAKNTVYLQMNSLKPEDTAVYYCAVETLTSTSLTRMDYWGQGTQVTVSS” here?
Answer: low polyreactivity

Question: For “QVQLVESGGGLVQAGGSLRLICDASGIIFYDYAMGWYRQAPGKERELVAAITSSGGSTYYADSVKGRFTISRDNAKNTVYLQMNSLKPEDTAVYYCAAATRGSGRRYDYWGQGTQVTLSS”, which “polyreactivity (PSR sort gate)” value is on record?
Answer: high polyreactivity

Question: Which “polyreactivity (PSR sort gate)” value does the source give for “QVQLVESGGGLVQAGGSLRLICDASGLTFGIYTMGWYRQAPAKESELVAAINWIGTRTYYADSVKGRFTISRDNAKNTVYLQMNSLKPEDTAVYYCATVIGYTKRKYDYWGQGTQVTVSS” here?
Answer: high polyreactivity

Question: Which “polyreactivity (PSR sort gate)” value does the source give for “QVQLVESGGGLVQAGGSLRLICDASGNTIIRYAMGWYRQGPGKERELVAAISYSGGRTYYADSVKGRFTISRDNAKNTVYLQMNSLKTEVTAVYYCNAASRYGCDYWRQGTQVTVSS” here?
Answer: high polyreactivity

Question: For “QVQLVESGGGLVQAGGSLRLICDASGRIFSFNAMGWSRQAPGKETELVAGITYGGNTYYADSVKGRFTISRDNANNTVYLQMNSLKPEDTAVYYCSAVRGVRHDYWGQGTQVTVSS”, which “polyreactivity (PSR sort gate)” value is on record?
Answer: low polyreactivity

Question: For “QVQLVESGGGLVQAGGSLRLICDAYVSTFYYYAMGWYRQAPGKVRELVAAISSGGSTNYADSVKGRFTISRDNAKNTVYLQMNILKPEDTAVYYCNAYSYWWLGYDYWGQGTQVTVSS”, which “polyreactivity (PSR sort gate)” value is on record?
Answer: high polyreactivity

Question: With “QVQLVESGGGLVQAGGSLRLICGASGLTSWYNAMGWYRQAPGKEREFVAAISFSGGRTFYADSVKGRFTISRDNAKNTVYLQMNSLKPEDTAVYYCNADVYGFDYWGQGTQVTVSS” as the sequence, how does the “polyreactivity (PSR sort gate)” value read?
Answer: high polyreactivity

Question: With “QVQLVESGGGLVQAGGSLRLICSASGRIFSYNVMGWYRQAPGKEREVVAAITSNDGSTYYADSVKGRFTISRDNAKNTVYLQMNSLKPEDTAVYYCAAPYDYAEYYYWGQGTQVTVSS” as the sequence, how does the “polyreactivity (PSR sort gate)” value read?
Answer: low polyreactivity

Question: For “QVQLVESGGGLVQAGGSLRLICSASGRTFAGYVMGWYRQAHGKERELVAAINASGGSTYYADSVKGRFTISRDNAKNTVYLQKNILKPEDTAVYYCAAARLGSDITRRYYYWGQGTQVTVSS”, which “polyreactivity (PSR sort gate)” value is on record?
Answer: high polyreactivity

Question: With “QVQLVESGGGLVQAGGSLRLICSASGSIFYRNVKRWSRQAPGKEREFVATISRGGTTNYADSVKGRITISRDNAKYTVYLQMNSLKPEDTAVYYCAAPIGVVYVGKGYDYWGQGTQVTLSS” as the sequence, how does the “polyreactivity (PSR sort gate)” value read?
Answer: low polyreactivity

Question: Which “polyreactivity (PSR sort gate)” value does the source give for “QVQLVESGGGLVQAGGSLRLIFAASGRIFRPNAMGWYRQAPGKEREFVAAITSSSGTTYYADSVKGRFTISRDNAKNTVYLQMNSLKPEDSAVYYCAAKYTSRSYKYDYWGQGTQVTVSS” here?
Answer: high polyreactivity

Question: Which “polyreactivity (PSR sort gate)” value does the source give for “QVQLVESGGGLVQAGGSLRLIGAASGRSLYVYEMGWYRQAPGNDRELVAAISRGGGRTYYADSVKRRFTISRDKAKNTVYVQRNSLKPEDTAVYYGAAPLLIGVSTYRIAPRSGYWGQGTQVTLSS” here?
Answer: high polyreactivity

Question: Which “polyreactivity (PSR sort gate)” value does the source give for “QVQLVESGGGLVQAGGSLRLISAASGRIFDLYTMGWYRQAPGKERELVAAIRWSHGSTYYADSVKGRFTISRDNAKNTVYLQMNSLKPEDTAVYYCAADTRTSYYNDDYDYWGQGTQVTVSS” here?
Answer: low polyreactivity

Question: With “QVQLVESGGGLVQAGGSLRLISAASGSTFDSYAMGWYRPAPGKERELVAAITRSVGSTYYADSVKGRFTISRDNAKNTVYLHMNSVKPEVTAVYYCAARGEWAIYVEFDYWGQGTQVTVSS” as the sequence, how does the “polyreactivity (PSR sort gate)” value read?
Answer: low polyreactivity

Question: Which “polyreactivity (PSR sort gate)” value does the source give for “QVQLVESGGGLVQAGGSLRLISAASGSTIIRNAMGWYRQAPGKERELVAAISTSGGRTHYADSVKGRFTISRDNAKTTVYLQMNSLKPEDTAVYDCAASNGYQAVTYDYWGQGTQVTVSS” here?
Answer: high polyreactivity

Question: Which “polyreactivity (PSR sort gate)” value does the source give for “QVQLVESGGGLVQAGGSLRLNCAASGSTFFGNAMGWYRQAPGKERELVAAISGSGGSTYYADSVKGRFTISRDNAKNTVYLQMNSLKPEDTAVYYCAKYYLTGLARYDYWGQGTQVTVSS” here?
Answer: high polyreactivity

Question: With “QVQLVESGGGLVQAGGSLRLNCSAYGSTFFDYVMGWYRQAPGKERDLVAAITRGGSSNYADSVKGRFTISRDNAKNTVYLQMNRLKPEDTAVYYCNAKRDKGFYWWYNYWGQGNQVTVSS” as the sequence, how does the “polyreactivity (PSR sort gate)” value read?
Answer: high polyreactivity

Question: For “QVQLVESGGGLVQAGGSLRLNSAASGSIFYRYAMRWYRQAPGKERELVAAISSNGGRTYYADSVKGRFTISRDNSKNTVYLQMNSLKPEDTAVYYCATLPGYSMDYWGQGTQVTVSS”, which “polyreactivity (PSR sort gate)” value is on record?
Answer: high polyreactivity

Question: For “QVQLVESGGGLVQAGGSLRLRCAASGFIFDYYAMGWYRQAPGKEWELVAGISWSGGSTYYADSVKGRFTISRDNAKNTVYLQMNSLKPEDTAVYYCATDDYLVIFEYDYWGQGTQVTVSS”, which “polyreactivity (PSR sort gate)” value is on record?
Answer: low polyreactivity

Question: With “QVQLVESGGGLVQAGGSLRLRCAASGFIFGRYTMGWYRQAPGKERELVAAISSRGGSTYYADSVKGRFTISRDNAKNTVYLQMNSLKPEDTAVYYCAADEIYCYDYWGQGTQVTVSS” as the sequence, how does the “polyreactivity (PSR sort gate)” value read?
Answer: high polyreactivity

Question: For “QVQLVESGGGLVQAGGSLRLRCAASGFIFRHNAMGWYRQAPGKAREFVAAISISGGSTYYADSVKGRFTISRDNAKNTVYLQMNSLKPEDTAVYYCNARSMGNTYLLYDYWGQGTQVTFSS”, which “polyreactivity (PSR sort gate)” value is on record?
Answer: low polyreactivity

Question: Which “polyreactivity (PSR sort gate)” value does the source give for “QVQLVESGGGLVQAGGSLRLRCAASGFIFVAYAMGWYIQAPGKERELVAAISWSGGSTYADSVKGRFTISRHNAKNTVYLQMNSLKPEDTAVYYCDARTSPIKTNNWYSQRYDSWGQGTQVTVSS” here?
Answer: low polyreactivity

Question: Which “polyreactivity (PSR sort gate)” value does the source give for “QVQLVESGGGLVQAGGSLRLRCAASGFIYLKYDMGWYRQAPGKERELVDRITSTGGSTYYADSVKGRFTISRDNAKNTVYLQMNSLKPEDTAVYYCAAVYISRNFFGRARGDYWGQGTQVTVSS” here?
Answer: low polyreactivity

Question: With “QVQLVESGGGLVQAGGSLRLRCAASGFTFFAYALGWYRQAPGKESELVAGISRSGGRTYYADSVKWRFTISRDNAKNTVYLQMNSLKPEDTAVYYCAAGIPVTSRHLGYWGQGTQVTVSS” as the sequence, how does the “polyreactivity (PSR sort gate)” value read?
Answer: high polyreactivity

Question: For “QVQLVESGGGLVQAGGSLRLRCAASGFTFGAYAMGWYRQAPGKERELVATIDWRGSSTYYADSVKGRFTISRDNAKNTVYLQMNSLKPEDTAVYYCAARLARGSYAYEYWGQGTQVTVSS”, which “polyreactivity (PSR sort gate)” value is on record?
Answer: low polyreactivity

Question: Which “polyreactivity (PSR sort gate)” value does the source give for “QVQLVESGGGLVQAGGSLRLRCAASGFTFRFYAMGWYRQAPGKERELVAAISSTGIRTYYADSVKGRFTISRDNAKNTVYLQMNSLKPEDTAFYYCAILHRDSILDYWGQGTQVTVAS” here?
Answer: high polyreactivity

Question: With “QVQLVESGGGLVQAGGSLRLRCAASGFTFTRYAMGWYRQAPGKERELVAVITSTAGSTYYADSVKGRFTISRDNAKNTVYLQMNSLKPEDTAVYYCAAESLVHGDVTLEEVVAQSYDYWGQGTQVTVSS” as the sequence, how does the “polyreactivity (PSR sort gate)” value read?
Answer: low polyreactivity

Question: For “QVQLVESGGGLVQAGGSLRLRCAASGGIFGRYAMGWNRQAPGKERELVAAISSRGGSTYYADSVKGRFTISRDNAKNTVYLQMNSLKPEDTAVYYCNALWVSYYTFRMDYWGQGTQVTVSS”, which “polyreactivity (PSR sort gate)” value is on record?
Answer: high polyreactivity

Question: Which “polyreactivity (PSR sort gate)” value does the source give for “QVQLVESGGGLVQAGGSLRLRCAASGIIFEYYAMGLYRQAPGKERELVAAITRGGTTYYADSVKGRFTISRDNAKNTVYLQMNSLKPEDTAVYYCNADSVAYGDEYDFWGQGTQVTVSS” here?
Answer: low polyreactivity

Question: With “QVQLVESGGGLVQAGGSLRLRCAASGITFKTYAMGWYRQAPGKERELVATINRGSRTNYADSVKGRFTISRDNAKNTVYLKMNSLKPEDTAVYYCAAHYTTFIPSPDGDYLGQGTQVTVSS” as the sequence, how does the “polyreactivity (PSR sort gate)” value read?
Answer: low polyreactivity

Question: With “QVQLVESGGGLVQAGGSLRLRCAASGITFRYYAMGWYRQAPGQERELVAAITRSGSTTYADSVKGRFTISRDNAKNTVYLQLNSLKPEDTAVYYCAVDYYYLTGGVDYWGQGTQVTVSS” as the sequence, how does the “polyreactivity (PSR sort gate)” value read?
Answer: low polyreactivity

Question: Which “polyreactivity (PSR sort gate)” value does the source give for “QVQLVESGGGLVQAGGSLRLRCAASGITLVDYAMGWNRQAPGKERELVAAITTGGSTNYADSVKGRFTISRDNAKNTVYLQINSLKPEDTAVYYCNKRAVILYDYWGQGTQVTVSS” here?
Answer: low polyreactivity

Question: With “QVQLVESGGGLVQAGGSLRLRCAASGLIFPYNAMGWYRQAPGKERELVAAIDTRGSSTYYADSVKGRFTISRDNAKNTVYLQMNSLKPEDSAVYYCNARTGRSPTGFRYWGQGTEVTVSS” as the sequence, how does the “polyreactivity (PSR sort gate)” value read?
Answer: high polyreactivity

Question: Which “polyreactivity (PSR sort gate)” value does the source give for “QVQLVESGGGLVQAGGSLRLRCAASGRIFGLYAMGWYRQAPGKERQLVAAISRGGGSTYYADSVKGRFTISRDNAKNTVYLQMNSLNPEDTEVYYCATGLGYFSRLDYCGQGTQVTVSS” here?
Answer: low polyreactivity
